Results reported in patent KR20140021799A (dated 2014).

Molecular target: T1, CD2 항원 (Jurkat T 세포 / T 림프구 표면) (UniProt P06729 25-351, limits assumed)
T1 construct: whole, on cells; also called CD2-positive Jurkat T 세포
T1 sequence (looked up): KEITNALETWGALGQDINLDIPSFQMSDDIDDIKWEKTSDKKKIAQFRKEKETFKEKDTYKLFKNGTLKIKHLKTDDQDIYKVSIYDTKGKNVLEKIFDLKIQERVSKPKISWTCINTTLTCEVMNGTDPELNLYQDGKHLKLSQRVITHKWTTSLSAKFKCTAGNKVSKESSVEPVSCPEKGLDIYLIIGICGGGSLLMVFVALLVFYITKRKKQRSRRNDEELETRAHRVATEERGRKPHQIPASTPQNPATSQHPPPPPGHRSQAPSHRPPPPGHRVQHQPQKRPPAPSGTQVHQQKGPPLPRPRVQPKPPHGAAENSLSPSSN
Test: cell-based ELISA on Jurkat T cells, FcR blocker, anti-6X HIS tag-HRP detection

B1: anti-CD20 scFv-LFA3-1 (other)
chain: FSQQIYGTWKGDVTFHVPSNVPLKEVLWKKQKDKVAELENSEFRAFSDFKGRVYLDTVSGSLTINSLQSEDFGEYEMESPNITDTMKFFLYVLESLPSPTEFGGGGSGGSGSGGGQVQLQQPGAELVKPGASVKMSCKASGYTFTSYNMHWVKQTPGRGLEWIGAIYPGNGDTSYNQKFKGKATLTADKSSSTAYMQLSSLTSEDSAVYYCARSTYYGGDWYFNVWGAGTTVTVSAGGGGSGGGGSGGGGSQIVLSQSPAILSASPGEKVTMTCRASSSVSYIHWFQQKPGSSPKPWIYATSNLASGVPVRFSGSGSGTSYSLTISRVEAEDAATYYCQQWTSNPPTFGGGTKLEIK
  binding result: binds
